We go through two substances from article PMC9811540.

The assay addresses UltraID-δ opioid receptor fusion protein (UniProt P41143). Put plainly: proximity labelling; test selection on live Expi293F cells expressing UltraID-DOR; 0.1 nM DTK-DNA, 0.1 nM Met-Enk-RF-DNA, 100 nM non-ligand DNA, biotin 2 μM, ATP 50 μM, 30 minutes; lysis with 1% SDS, streptavidin beads, qPCR. (Quantitative PCR measures a nucleic acid by following its amplification.)

For Dmt-Tic-Lys (DTK), DNA-linked (peptide), the fold enrichment over non-ligand DNA turned out to be 280 fold. For Met-Enk-RF, DNA-linked (peptide), the fold enrichment over non-ligand DNA was found to be 40 fold.
